The source of these data is paper PMC7615680, “In vitro construction of the COQ metabolon unveils the molecular determinants of coenzyme Q biosynthesis” (Nature catalysis, 2024).

The target of data set [1] is T1, COQ3 (tetrapod ancestral) (Tetrapoda, UniProt Z9LPW8APZ1).
T1 construct: expressed in E. coli
T1 sequence (Z9LPW8APZ1 39-362): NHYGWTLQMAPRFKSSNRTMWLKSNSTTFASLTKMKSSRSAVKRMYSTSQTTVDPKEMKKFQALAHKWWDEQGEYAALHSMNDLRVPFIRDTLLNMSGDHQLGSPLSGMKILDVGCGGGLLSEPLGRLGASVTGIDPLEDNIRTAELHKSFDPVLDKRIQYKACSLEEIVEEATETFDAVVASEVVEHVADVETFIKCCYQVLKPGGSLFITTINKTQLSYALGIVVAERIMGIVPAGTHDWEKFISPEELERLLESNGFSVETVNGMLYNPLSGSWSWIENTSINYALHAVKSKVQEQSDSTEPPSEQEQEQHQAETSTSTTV
Description: microscale thermophoresis. Type of data set: binding. (In general: Microscale thermophoresis detects binding through changes in fluorescence in a small temperature gradient.)

Data set [2] deals with COc1cc(O)cc(CC=C(C)C)c1O. As to the kind of experiment: purified protein. The conditions noted are these: 1 mM SAM, 150 uM NADH, 25 °C.
The subject of data set [3] is Nc1ncnc2c1ncn2[C@@H]1O[C@H](COP(=O)(O)OP(=O)(O)OP(=O)(O)O)[C@@H](O)[C@H]1O. Description: ATPase activity (Malachite green phosphate). Type of data set: biochemical, Tetrapoda. The following applies: basal ATPase; no COQ partner or intermediate.
In data set [4] the test system is NC(=O)C1=CN([C@@H]2O[C@H](COP(=O)(O)OP(=O)(O)OC[C@H]3O[C@@H](n4cnc5c(N)ncnc54)[C@H](O)[C@@H]3O)[C@@H](O)[C@H]2O)C=CC1. Description: purified protein. The conditions noted are these: 700 uM non-prenylated 5ox, without COQ9, 0.05% DDM, pH 7.2, 25 °C.
The test system of data set [5] is CC(C)=CCc1cc(C(=O)O)cc(O)c1O. Description: purified protein. The following applies: 2 mM SAM, no added Mg2+, pH 7.2, 25 °C.

By Kd is commonly meant a measure of binding affinity in units of concentration. One may read the Km as the concentration of substrate that gives half-maximal velocity. As a reminder, the kcat is the number of substrate molecules converted per active site and unit of time at saturation.

In data set [1], `CC(C)=CCc1cc(C(=O)O)cc(O)c1O` [compound 2, 3,4-dihydroxy-5-(3-methylbut-2-en-1-yl)benzoic acid] gave a Kd of 6.5 µM.

On to COQ5 (tetrapod ancestral) (Tetrapoda), for which, in data set [2], the Km amounted to 444 µM and the kcat stood at 0.04 s⁻¹.

As to COQ8B (tetrapod ancestral) (Tetrapoda), in data set [3], the Km worked out at 26.6 µM and the kcat was determined as 0.0067 s⁻¹.

On to COQ7 (tetrapod ancestral) (Tetrapoda), for which, in data set [4], the Km was found to be 141.7 µM and the kcat was found to be 0.02 s⁻¹.

COQ3 (tetrapod ancestral) (Tetrapoda): in data set [5], the Km came to 887.9 µM and the kcat stood at 0.0467 s⁻¹.
